{"source": "paper doi:10.1101/2023.10.16.562645", "about": "(bioRxiv, 2023)", "proteins": {"B1": {"name": "Bacillus subtilis YsiA (natural protein, B. subtilis, UniProt P94548 1-194, looked up)", "chain": "MKQKRPKYMQIIDAAVEVIAENGYHQSQVSKIAKQAGVADGTIYLYFKNKEDILISLFKEKMGQFIERMEEDIKEKATAKEKLALVISKHFSLLAGDHNLAIVTQLELRQSNLELRQKINEILKGYLNILDGILTEGIQSGEIKEGLDVRLARQMIFGTIDETVTTWVMNDQKYDLVALSNSVLELLVSGIHNK"}}, "target": "the molecule itself", "assay": "SEC"}
{"protein": "B1", "values": [{"measurement": "stoichiometry N", "value": 2}]}
